Settings: Geobacillus kaustophilus (strain HTA426), pH 7, Thermal, CD, Potassium Phosphate Buffer 10 mM, whole UniProt chain shown

B1: Dihydrofolate reductase wild type, Q5KZ26 (protein)
chain: MISHIVAMDENRVIGKDNRLPWHLPADLAYFKRVTMGHAIVMGRKTFEAIGRPLPGRDNVVVTRNRSFRPEGCLVLHSLEEVKQWIASRADEVFIIGGAELFRATMPIVDRLYVTKIFASFPGDTFYPPISDDEWEIVSYTPGGKDEKNPYEHAFIIYERKKAK
Tm (KCl 0.1 M): 66.9 °C
Tm (KCl 0.2 M): 67.9 °C
Tm (KCl 0.5 M): 68.3 °C
Tm (KCl 1 M): 70.1 °C
Tm (KCl 1.5 M): 71.7 °C
Tm (KCl 2 M): 73.8 °C
Tm (KF 0.1 M): 66.8 °C
Tm (KF 0.2 M): 67.5 °C
Tm (KF 0.5 M): 68.6 °C
Tm (KF 1 M): 71 °C
Tm (KF 1.5 M): 73.8 °C
Tm (KF 2 M): 74.6 °C
Tm (NaCl 0.1 M): 66.8 °C
Tm (NaCl 0.2 M): 67.2 °C
Tm (NaCl 0.5 M): 67.6 °C
Tm (NaCl 1 M): 69.5 °C
Tm (NaCl 1.5 M): 71.5 °C
Tm (NaCl 2 M): 73.4 °C

Reference: FireProtDB (doi:10.1021/bi500238q)
